In the supplement of paper PMC12042874:
± gives the uncertainty stated by the source.

Assay: amyloid nucleation score (Sup35N fusion, yeast selection) (log enrichment); library NNK1; higher = more nucleation; inactive = no reads after selection
Outline: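 Psi-negative yeast expressed Sup35N fused to peptides of 20 random codons. They were induced 24 hours with 100 μM copper sulfate, grown 7 days at 30°C without adenine and uracil, and their plasmid inserts from input and output were Illumina-sequenced. The nucleation score is the DiMSum log enrichment of output over input reads, centred on the mode score of non-aggregating sequences. Sequences with under 100 input reads were excluded.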

| Substance | amyloid nucleation score |
| --- | --- |
| PSWWVMEFTWIPQNGGLLSL | 6.64 ± 0.082 |
| LPFLS | -0.116 ± 0.68 |
| FVTQAGRGMHR | 0.682 ± 0.75 |
| MIPDINIFQIIMVTHKLFRY | 3.71 ± 0.14 |
| HCVLRFCNPG | inactive |
| NNTDYLNCYTAICSSNTVAG | inactive |
| GLKLKIREYSAFLCR | -0.027 ± 0.36 |
| ACPDHMRV | 1.33 ± 0.62 |
| VVGFYEWGQSREISSLRGGC | 0.382 ± 0.58 |
| PWCSKQEGTRMWGMYGAPGG | 0.162 ± 0.62 |
| LSWFMGLSYIKILYYCHIYD | -0.142 ± 1.1 |
| MVSTPSDGNLED | -0.816 ± 0.65 |
| VIFRDPGQRRLSC | -0.858 ± 2.1 |
| FINLASVVSIVVLVT | 4.24 ± 0.076 |
| TRWLILWNLAGPTGCYFRIL | 0.063 ± 0.63 |
| YCPNLYVVDGCFVLNSKLIL | 5.63 ± 0.072 |
| DYSYCKVNPLNSVLSVLVLL | -0.34 ± 0.29 |
| ERIIRKAC | 0.338 ± 1.4 |
| FEGLVQL | inactive |
| GPIRDKSELAYMLPFEVMYT | 0.565 ± 0.67 |
| VGRGSGPRAQYMWLSKTEAG | -0.2 ± 0.47 |
| SYLDLRLAVCHCNGA | 5.38 ± 0.055 |

| Substance | amyloid nucleation score |
| --- | --- |
| GQSKLVLHFAILTVVAWPFD | 0.385 ± 0.51 |
| VFVVN | -0.557 ± 0.55 |
| FRYSSDWWSYS | -0.834 ± 1.4 |
| YRIPLARMWMVTLPL | -0.317 ± 0.8 |
| RGNRHTSGNVTL | 0.045 ± 0.35 |
| FAIFKSTIPINSVVWPIIMH | 0.87 ± 0.3 |
| CVVWAEVRVR | -0.419 ± 0.79 |
| GTLPLKDKGPYRDL | -1.08 ± 1.4 |
| LCLFFGLHLWVWMRKACCY | -0.205 ± 0.31 |
| AGHYLCGSITNLTA | 0.721 ± 0.97 |
| HRCRREYSQSSGSWDESIEN | 1.05 ± 0.14 |
| IMGHIKM | -0.366 ± 0.44 |
| ERGII | 0.621 ± 0.39 |
| TWIEDCSYYEMYTGPERTLT | -0.282 ± 0.46 |
| VVYHVFFWELTNAKHNLPML | -1.17 ± 2.4 |
| FTFNYIATVSQLPGFGVIHS | 0.343 ± 0.7 |
| LLFCRFRSWDRDHRWCRCD | 1.95 ± 0.66 |
| LACCFIVSWFNGSGSLTSRS | 7.497 ± 0.05 |
| RVCVLFSCWRTMYMIWNSRE | 5.71 ± 0.061 |
| FYRASKDCLAKVRRVGC | 0.482 ± 0.59 |
| CVAWNIDW | 0.069 ± 0.76 |
| GCKSGDGQRVGVLLNQNCTR | 0.863 ± 0.56 |

| Substance | amyloid nucleation score |
| --- | --- |
| YIDRRLRLRVG | inactive |
| GLVHEAHLDANKFFH | -0.139 ± 0.71 |
| RRSGTLDGSGSGSCVRLPPN | -0.172 ± 0.5 |
| DPTTPYDISGIWLRLEVRAD | -0.175 ± 0.46 |
| ERMSRLCSQSGARRKCGAGC | 1.01 ± 0.64 |
| SLAPLHLFERMGGRS | 0.532 ± 0.86 |
| YIAMYGARTPSCVVKPG | -0.832 ± 0.55 |
| RVGDYGKHRW | 1.31 ± 0.14 |
| FKTDRGTRHFDFYYCV | 0.395 ± 0.21 |
| MKYKSWTSGSGSSVSRRMKL | 0.028 ± 0.72 |
| IRHRCSLMICFPAHTRGSAQ | -0.219 ± 0.68 |
| RCNSDESYL | 0.078 ± 0.42 |
| LFNLFSRL | 0.335 ± 0.51 |
| GRIVVTSQFMMIGRWGSPPP | 3.29 ± 0.1 |
| MFFVSI | 0.41 ± 0.22 |
| VISSSVWFFATMQDCWVGRQ | 0.509 ± 0.69 |
| DSGDEGVIVSVSHGWTSEGL | 0.443 ± 0.81 |
| GRYVSSWFWFRFMQVQANTN | 0.248 ± 0.31 |
| AYNVVHSSLGTKGVRGSCAT | -0.74 ± 1.7 |
| ELKSAFCWRARLG | 0.197 ± 0.49 |
| FLWSYWPCSVGTEMTSQVRI | -0.459 ± 0.82 |
| IVMQVLTQTVMWIFYLNGSH | -0.254 ± 0.42 |

| Substance | amyloid nucleation score |
| --- | --- |
| KGGPRPQMC | -0.244 ± 0.27 |
| SFVLGYSFLRKSCWFNVVTL | inactive |
| IMEMG | 0.11 ± 0.53 |
| KKLNSCF | 0.533 ± 0.63 |
| ESQLVTAYEH | 0.324 ± 1.1 |
| KGMLLCYFPNKCPAWEAKCG | 5.17 ± 0.059 |
| VTMRLL | 0.968 ± 0.63 |
| ATRDYVSGANDGIGPQMMWV | 0.324 ± 0.49 |
| DTRTSNNPALFRGFTALRVR | 0.412 ± 0.54 |
| SYIQLMSMMIFAHMTANRRN | 1.9 ± 0.42 |
| LSCIVW | -0.366 ± 0.57 |
| NCSMPFETMMKHSRN | -0.068 ± 0.53 |
| PMQNSTPLFYSNAWSE | -0.096 ± 1.1 |
| LVQMLTVDCATEKLHLAILS | 0.567 ± 0.64 |
| YVRVRSIDVLQQKRSLFVRD | 0.595 ± 0.97 |
| FCVRTEYSGGELAARSLDFA | 0.498 ± 0.97 |
| YSARMLIRLSLLGFLPVSAP | 0.711 ± 0.55 |
| FVCYSLNSSSFMIPYWILLK | -0.293 ± 0.46 |
| YTCSVGDVMINDSETSSKAG | 0.053 ± 0.24 |
| STVWLSVGALAFARASGRRA | 3.74 ± 0.12 |
| MMLGSGFLCLLMYDGVRFLL | -0.839 ± 0.62 |
| RIRWSVVVNV | -0.002 ± 0.29 |
